The record followed here is the DeepSol protein solubility set.

The nature of the series: soluble on expression in E. coli; label from the status in PepcDB or PDB records.
With “MTAAQGNSNETLFSSYKMGRFDLSHRVVLAPMTRCRALNGVPNAALAEYYAQRTTPGGFLISEGTMVSPGSAGFPHVPGIYSDEQVEAWKQVVEAVHAKGGFIFCQLWHVGRASHAVYQPNGGSPISSTNKPISENRWRVLLPDGSHVKYPKPRALEASEIPRVVEDYCLSALNAIRAGFDGIEIHGAHGYLIDQFLKDGINDRTDQYGGSIANRCRFLKQVVEGVVSAIGASKVGVRVSPAIDHLDATDSDPLSLGLAVVGMLNKLQGVNGSKLAYLHVTQPRYHAYGQTESGRQGSDEEEAKLMKSLRMAYNGTFMSSGGFNKELGMQAVQQGDADLVSYGRLFIANPDLVSRFKIDGELNKYNRKTFYTQDPVVGYTDYPFLAPFSRL”, the “soluble on expression in E. coli” value is listed as “soluble”. Next, “MSLSALLNYKLEGSGETVVLIHGLFGSLDNLGLLARDLKNDHQVLSLDLRNHGLSFHSDEHNYALMAQDVNQLLEHLNLTSVVVIGHSMGGKVAMKLADIAAEKVRQLVVLDMSPVAYSQRRHDNVFAGLEAVLVQKPTSRSEVMAILAQHIEQEGVRQFLGKSLMSEQNVMTWRFNVAALKAHYAEILGWDIIAKCRIPTLFIKGADSDYLTTQHQPMVQAQFSQAKAHVIANTGHWLHAEKPAEVIRAIRKFIDVPVEGHHHHHH”: “soluble”. The entry for “MDYRQLHRWDLPPEEAIKVQNELRKKIKLTPYEGEPEYVAGVDLSFPGKEEGLAVIVVLEYPSFKILEVVSERGEITFPYIPGLLAFREGPLFLKAWEKLRTKPDVVVFDGQGLAHPRKLGIASHMGLFIEIPTIGVAKSRLYGTFKMPEDKRCSWSYLYDGEEIIGCVIRTKEGSAPIFVSPGHLMDVESSKRLIKAFTLPGRRIPEPTRLAHIYTQRLKKGLFLEHHHHHH” is “soluble”; for “GMTQHITRMRREIDEIPEAVQRLLDHGAQDVARVAAVLRLRDPSFVATVARGSSDHVCTYLSYAAELLLGLPVASLGPSVASVYDARLRLDRALCLAVSQSGKSPDIVAMTRNAGRDGALCVALTNDAASPLAGVSAHTIDIHAGPELSVAATKTFVTSAVAGLMLLADWAEDDGLRAALGNLPETLAAASRIDWPEMRVAIGARPSLFTLGRGTSLAVSNEAALKFKETCQLHAESYSSAEVLHGPVSIVEEGFPVLGFAAGDAAEAPLAEIADQIAAKGATVFATTGRVTRARVLEHVRSGHALTDPLSLIVSFYSMVEAFASERGIDPDAPRHLNKVTETV” it is “soluble”. The entry for “MFEALKEVLGEINSKLAAVNNELSSKIMSENIVSTRPVAQAQYCGPYKLEKTLGKGQTGLVKTGTHCITGRKVAIKIVNKEKLSESVLQKVEREIAIMKLIEHPHVLHLYDVYENKKYLYLLLEHVSGGELFDYLVRKGRLMSKEARKFFRQIISALDFCHAHNICHRDLKPENLLLDERNNIKVADFGMASLQVEGSMLETSCGSPHYACPEVIRGEKYDGRKADVWSCGVILYALLVGALPFDDDNLRNLLEKVKRGVFHIPHFVPADVQSLLRAMIEVDPGKRYSLADVFKHPWVSGTTKADPELELPMSQVVQTHVIPGEDSIDPDVLRHMNCLGCFKDKQKLINELLSPKHNTEKMVYFLLLDRKRRRPAQEDDTEIVLRGAAQNNDPPKKRTDSSRTSRYPMGSIADGSPINPRKTYGRNQKSGRHSSLGGSPTESPRSSTRDLFGSSSSGSYSARAGEDRDRGRSASRSTNSYHYYTQPVDPQTLAEAARHVRDAQERRESRDSGRGSSRKESKDRSDKSASSSSCKNDASSTSSVPHKYSPPSVMSESVVVSSSTMNSTNSSTNSLIAGNSQTSIGSTSGPWRSKLNNIKNSFLGTPRFHRRKMSNGTAESDSEDSQMIDTTDLVKKSWFGSLASSMSVERDDTHCVPVQGKTLNSIKAELIRAFLQIHELSHSVVGQNCFRVEYKRGPTVGGSVFSRGIKMNVDIIPSPQQVVIAGETPTYVVQFVLLAGPVRRFKRLVEHLSAILQNSTQQRADRQQQAALMVRPRRLSDSSVGSACSDSESNASSINMIARHSDKTETTSATSSDPYGPSPSMRSVGSGTANSYKSPTPHRRNTTAVTASSSSASNRYGPSSSSSGSYSNNADYSYHPEYSQRSNGSSAPKNQYSPGSQRSFAFSMFNKADKV” is “not soluble”; for “MFRKESTILVLGSKVRGAQPGHVLRWRLEHALELSRHTTGPIVVSGKGEAYVMDDWLIRHGVDYRRLIVEPEATSTNENIENAHALLPDTHEWLVVTSDFHKLRTLAWARHLGVPIRVSSAVTKPPFRVNNFVRECFALPHSLLRIAWRRLLAAAALEHHHHHH” it is “not soluble”; for “MAVRVCCHAPPGVSNHLFTFCAGNLTTGFSGGSVTSQKGGAAGLPTCSRRCPRGCLPGSDPLPRHPRRYAPPVTPPVTPPTTPAPRSRARMLELVFPKDTNYHGTAFGGWVLALMDKAASVAAVRHAGGNVVTARMDGVDFHVPIRVGDAVALDARVIRVGRSSMTIRVDVYRENMASGEQQLATGGLFTFVALGEDGKPRPVPPLPEGSTDSEQPDYEARPLEHHHHHH” it is “not soluble”. Consider “MTVQTAIFDLIKQAKTIIIHRHQRPDPDAIGSQLGLAAIIKASFPAKRVLTPGKQYHGFDWLGQMDEVTEADYQDALVLILDTANQPRIDGELWNQGKTIVKIDHHPNDDAFGDPQWVDVDASSTSEMIYNWYAPLAAELTLTANAARLLYAGIVGDTGRFLYSATKPSTMRAAAALMEAGADAEAVNRIEDTITLPVARLSAYVYEHLTQLDSGAAYVILTNAILDSFAIGDASTAGVVPLPGRIDTVKCWAIFVQQKEGDFRIRLRSKGPSINGVAKNHDGGGHALASGAKAKDQQEIETVVRELDQVASQYEKEVLEHHHHHH”, for which the “soluble on expression in E. coli” value was “not soluble”. For the sequence “MGSDKIHHHHHHMRALSFIFIALILVGCNEPAKEITKPIRPIMWTKVKISPFEQIRTLSGIVAPVEATKLSFEVQGKIQTIEVNLGNEVVKGQELARLNQRNFNLGLQSAQAQYQQAKATLIDARNSHRRYEQLLKQGVVSQSGFDNAKATYDASKSAADVAQAQLDIASKNLQDSILLAPYDGIITKRLYEPSQQISAGQSLFEIEGKHGLEVHVMVPETLIRELRQLSILPIHFPVLPELTMQGQITEIGTRAEYANAFPVTAVLEGDNPLLRAGMTAEVDFSFSGTGRTGHTGDVFRIPATALSAGLEQKAYVFVYNPDSQQVIKTQVQTENIFKNEVFISSGLKQGDIIAIAGVAFLRDGQQVSLTDNNVQRFN”, the “soluble on expression in E. coli” value is reported as “not soluble”. Consider “QVQLQQPGAELVKPGTSVKLSCKASGYNFTSYWINWVKLRPGQGLEWIGDIYPGSGITNYNEKFKSKATLTVDTSSSTAYMQLSSLASEDSALYYCAGQYGNLWFAYWGQGTLVTVS”, for which the “soluble on expression in E. coli” value was “soluble”. As for “MRTMPDAPALHLTAIDSHAHVFSRGLNLASQRRYAPNYDAPLGDYLGQLRAHGFSHGVLVQPSFLGTDNRYLLSALQTVPGQLRGVVMLERDVEQATLAEMARLGVRGVRLNLMGQDMPDLTGAQWRPLLERIGEQGWHVELHRQVADIPVLVRALQPYGLDIVIDHFGRPDARRGLGQPGFAELLTLSGRGKVWVKVSGIYRLQGSPEENLAFARQALCALEAHYGAERLMWGSDWPHTQHESEVSFGSAVEQFEALGCSAQLRQALLLDTARALFGFELEHHHHHH”, the “soluble on expression in E. coli” value was “soluble”.

Take “MPSVESFELDHNAVVAPYVRHCGVHKVGTDGVVNKFDIRFCQPNKQAMKPDTIHTLEHLLAFTIRSHAEKYDHFDIIDISPMGCQTGYYLVVSGETTSAEIVDLLEDTMKEAVEITEIPAANEKQCGQAKLHDLEGAKRLMRFWLSQDKEELLKVFG”: the “soluble on expression in E. coli” value is recorded as “soluble”. The entry for “SLKIRERFSMVDLPVLIITAAIIGHDKYKAFHAGANDILQKPYHYSEFMARIQNLIMMKHTANQATRMEMAFLQSQIKPHFLYNVLNTIISLTHLDIEKAREVTEEFTNYLRMSFDFQNTSAISSFRHELSIINSYLSIEKTRFSNRLEVLFDIDEDIDFILPPLMIQPLVENAVLHGVSKKRGGGWIKLTAKKQSKNEYHIKVEDNGPGITPEKQIDLLSTDFDRSVGLKNINQRLKHFCGSELMISSTPDAGTSVSMLIHLAETTGSPKELKDTERT” is “soluble”; for “IDGDSITNKQIKKFWRQKQIIEEDHLYSAIKAAARVRARNLSDEDYKRFEESLDMEDLETEDHQGLKDWWTKSKYAYLNQPALGSADSLKRKRFSTYTPNCFSFKPCNPLYATSLNVF” it is “not soluble”.
